This note sets out measurements from patent publication US20020009436A1, “Methods and compositions for inhibiting adhesion by microorganisms” (priority 1999, published 2002).

For one assay, the system named is S. sobrinus 6715. Put plainly: Disc-diffusion growth assay, S. sobrinus. Conditions: 500 μg/ml and 1.0 mg/ml, 18 h. (In general: Agar diffusion results depend on both activity and mobility in agar.)
A further assay concerns S. sanguis. Put plainly: Adhesion of S. sanguis to saliva-coated hydroxylapatite beads. The format is cell-based, Streptococcus sanguis. Conditions: polyphenol oxidase 100 μg/ml or 150 units; asparaginase 20 U/ml; 1 hr at 37° C. As for the experimental part:
S. sanguis was grown and handled according to procedures known to those of skill in the art. Hydroxylapatite beads were coated with saliva and washed. Adhesion was measured using [^3H]thymidine labeled streptococci. Various cell densities were run but using a single 40 mg weight of beads.
The “cooperative” adhesion (loss of upward slope on the Scatchard plot) was absent following both enzyme treatments. Incubation of cells with enzymes was 1 hr at 37° C.

Assay [1] deals with S. aureus. Put plainly: Fibronectin binding assay, S. aureus. Conditions: polyphenol oxidase 80 U/ml, asparaginase 20 U/ml. Format: cell-based. As for the experimental part: (§1) Wells were filled with human serum fibronectin (50 μg/ml) diluted in carbonate buffer (50 mM Na2CO3—NaHCO3, pH 9.5 overnight). Controls were coated with 1% BSA. The wells were washed three times with PBS and incubated with PBS-Tween (0.5% Tween 20 and 0.05% NaN3) 1 h at 37° C. After attachment, the wells were washed three times with PBS-Tween and allowed to dry. Subsequent assays were as described hereinabove.

For assay [2], the system named is S. aureus. Put plainly: Collagen binding assay, S. aureus. Format: cell-based. The procedure: Wells were filled with 1 mg/ml soluble collagen overnight at 4° C. Control wells were coated with 1% BSA. The protein solutions were removed and permitted to stand at 37° C. for 1 h. A solution of 2% BSA was added to the wells to block unoccupied sites and prevent non-specific binding of bacteria. After 30 min, BSA was removed and the wells were washed once with distilled water. Finally, the bacterial suspensions (100 μl, OD 1.4) were added to the plates and incubated at 37° C. for 2 h. Unbound bacteria were removed by washing the wells three times with PBS containing 0.01% Tween 20. The wells were dried at 37° C. for 30 min and stained with crystal violet for 15 min. Wells were rinsed with distilled water and dried at 37° C. for 2 h. After adding 100 μl of 95% (v/v) ethanol to each well the plates were then shaken to release the stain and a reading of 550 nm was carried out.

A further assay has as its system Influenza A strain H1N1. Put plainly: Hemagglutination of chicken erythrocytes by influenza virus. Format: cell-based. Conditions: polyphenol oxidase 70 U/ml or asparaginase 10 U/ml; untreated 256.
Assay [3] has as its system A. naeslundii ATCC 12104 (adhesin) / P. intermedia (receptor). Nature of the assay: Coaggregation A. naeslundii ATCC 12104 / P. intermedia. Conditions: P. intermedia (receptor) enzyme treated; polyphenol oxidase 90 U/ml, asparaginase 20 U/ml.
Experimental: (§2) S. sanguis 10556, A. naeslundii strains 12104 and T14V and E. coli were grown static cultures in Todd-Hewitt broth (BBL Microbiology Systems, Cockeysville, Md.). P. gingivalis W50, A. actinomycetemcomitans and C. ochracea were grown in brain heart infusion broth (BBL). F. nucleatum 22586 and P. intermedia 25611 were grown in modified Schaedler broth (BBL). All oral species except S. sanguis 10556 were incubated at 37° C. as static cultures under an anaerobic atmosphere containing H2, CO2 and N2(10:10:80) with GasPaks (BBL). S. sanguis was incubated at 37° C. as static cultures in 5% CO2.
(§3) Bacteria were harvested in the mid to late exponential growth phase by centrifugation (10,000×g for 10 min at 4° C.). The cells were washed twice in coaggregation buffer (30 mM 3-[N-morpholino]propanesulfonic acid (MOPS), pH 7.0) and adjusted to an optical density of 0.6-0.8 at 540 nm (1-cm path). […]
(§4) Coaggregation was assessed by turbidity changes. Following mixing of the cells for 10 s on a Vortex mixer, absorbance readings were made every 30 min. The percentage of coaggregation was calculated from the following formula: Percent coaggregation=[OD540(A)+OD540(B)−OD540(A+B)]/(OD540(A)+OD540(B)), where A is the control containing cells of one strain, B is the control containing cells of the other strain, and A+B is the reaction mixture containing both cells. […]
The next assay relates to P-fimbriated E. coli. Nature of the assay: Flow cytometric adhesion of P-fimbriated E. coli to UECs. Format: cell-based. The source says:
Methods for handling polyphenol oxidase and asparaginase and for observing adhesion by microorganisms were generally as described in the previous Examples with variations to adapt these methods to epithelial cells.
The bacteria were labeled intracellularly with the fluorescein dye CFDA-SE. Median fluorescence intensity of the UECs was taken as a measure of the number of bacteria attached to them. In the Figures below, median fluorescence is converted to % adhesion using control conditions (UEC+untreated bacteria) as 100%.
For orientation: In flow cytometry, cells or beads pass a laser one at a time.

In assay [4] the test system is F. nucleatum (adhesin) / A. actinomycetemcomitans (receptor). Nature of the assay: Coaggregation F. nucleatum / A. actinomycetemcomitans. Conditions: polyphenol oxidase 90 U/ml, asparaginase 20 U/ml.
Experimental: as §2, §3, §4
Assay [5] concerns proteolytic activity of the P. gingivalis. Put plainly: Hydrolysis of collagen substrate (azocoll) by P. gingivalis. Format: cell-based. The source says:
The asparaginase and polyphenol oxidase thus not only affect the adhesion and/or hemagglutination, but also the proteolytic activity of the P. gingivalis.

Assay [6] has as its system S. sobrinus 6715 glucan-binding lectin. Put plainly: Aggregation of S. sobrinus with high molecular weight dextran T-2000 (standard rate assay). Format: cell-based, Streptococcus sobrinus. Conditions: cells treated with asparaginase. As for the experimental part:
S. sobrinus 6715 was maintained on tryptic soy agar (Difco, Detroit, Mich.) and grown for experiments in Terleckyj's defined medium or tryptic soy broth (TSB) (Difco) pretreated with dextranase (1 mg of enzyme per g dry medium) and invertase (5 mg per g dry medium) for 2 h each in 5% CO2 at 37° C. for 16-18h. Cultures were centrifuged at 12,000×g for 10 min and washed twice with cold phosphate buffered saline (PBS, 20 mM, pH 7.2). Cells were suspended in PBS to an optical density of 0.8 (A540). Cultures grown in TSB were harvested and suspended in PBS and subsequently treated with dextranase for 1 h, followed by washing two times in PBS.
The standard rate assay published by Drake et al. (Drake D. et al. Infect. Immun. 56:1864-1872 (1988)) was used to study the interaction of S. sobrinus 6715 glucan-binding lectin with high molecular weight dextran. Briefly, bacterial suspensions were adjusted to an optical density of 0.75-0.90 in PBS, and 3-ml suspensions were added to test tubes (13×100 mm). Dextran T-2000 was added at a final concentration of 10 1μg/ml and the suspensions were vortexed for 5 sec. Control tubes received PBS. The decrease in optical density was continuously monitored spectrophotometrically for 5 min. Rate constants were obtained from the slopes of first-order plots of ln A/A0 (A=observed optical density; A0 optical density at time zero) versus time in minutes. […]

In assay [7] the test system is S. epidermidis (clinical isolate). Put plainly: Fibronectin binding assay, S. epidermidis. Format: cell-based. Conditions: polyphenol oxidase 80 U/ml, asparaginase 20 U/ml, untreated 0.17. As for the experimental part:
as §1

B1: asparaginase: enzyme that catalyzes hydrolysis of the side chain amide group of asparagine to a carboxyl group; E. coli asparaginase (protein, UniProt P00805 23-348, looked up)
L-asparaginase 2: LPNITILATGGTIAGGGDSATKSNYTVGKVGVENLVNAVPQLKDIANVKGEQVVNIGSQDMNDNVWLTLAKKINTDCDKTDGFVITHGTDTMEETAYFLDLTVKCDKPVVMVGAMRPSTSMSADGPFNLYNAVVTAADKASANRGVLVVMNDTVLDGRDVTKTNTTDVATFKSVNYGPLGYIHNGKIDYQRTPARKHTSDTPFDVSKLNELPKVGIVYNYANASDLPAKALVDAGYDGIVSAGVGNGNLYKSVFDTLATAAKTGTAVVRSSRVPTGATTQDAEVDDAKYGFVASGTLNPQKARVLLQLALTQTKDPQQIQQIFNQY
With B1, in the assay with S. sobrinus 6715, the “inhibition of growth of S. sobrinus” value is given as “did not significantly inhibit growth”. Further, in the assay on S. sanguis, the adhesion to hydroxylapatite entry is “reduced adhesion”. Besides, the “Absorbance (fibronectin)” value is listed as 0.18 in the assay with S. aureus [1] (S. aureus Cowan, untreated 0.33); 0.35 with S. aureus [1] (S. aureus Wood, untreated 0.42); 0.16 in assay [7]. The “Absorbance (collagen)” value with S. aureus [2] (S. aureus Cowan, untreated 0.47) came out at 0.30; with S. aureus [2] (S. aureus Wood, untreated 0.40), 0.26. Also, the “Hemagglutination Titers, Dilution of Virus + RBCs (fold)” value in the assay with Influenza A strain H1N1 amounted to 64 fold. Besides, the entries for the “Inhibition % of coaggregation” value in [3], in [4] (A. actinomycetemcomitans (receptor) enzyme treated) and in assay [4] (F. nucleatum (adhesin) enzyme treated) were 23%, 40% and 23%, respectively. In addition, the entries for the “decrease in adhesion to UECs” value in the assay with P-fimbriated E. coli (asparaginase 2.5 units/ml), with P-fimbriated E. coli (asparaginase 5 units/ml) and with P-fimbriated E. coli (asparaginase 25 units/ml) were 45%, 55% and 85%, respectively. For the same molecule, the “adhesion to UECs” value in the assay with P-fimbriated E. coli (bacteria first incubated with globoside, then polyphenol oxidase 282 units/ml or asparaginase 5 units/ml) was “nearly the same as that of untreated bacteria”. Moreover, in [5], the “hydrolysis of the collagen substrate (azocoll)” value is “reduction of the hydrolysis”. In addition, the “ability of cells to aggregate high molecular weight dextrans” value in assay [6] is listed as “reduced”. Moreover, the “inhibition of growth of S. pyogenes” value in the assay with S. pyogenes is listed as “did not significantly inhibit growth”.
